Biological target: HLA-A*02:01
Assay: IEDB peptide-MHC binding, purified MHC/competitive/radioactivity; filed as Kd, often an IC50 or EC50 that approximates it; ≥ and ≤ were set here for values at or beyond the usual limits of such assays
[1] = source organism: Hepatitis B virus subtype ayw

Kd (source organism: Homo sapiens)	Sequence	Kd [1]	other results
–	RLCVQSTHV	–	Kd (source organism: Human papillomavirus 16): 16.7 µM
≥ 50 µM	KLPGLLSRDL	–	–
–	LLYQTFGRKL	≥ 50 µM	–
–	HLEGKVILV	–	Kd (source organism: HIV-1 M:B_MN): 8.33 µM
≥ 50 µM	PLERFAELV	–	–
≥ 50 µM	ALSRKVAELV	–	–
0.102 µM	SLQLVFGIEL	–	–
–	GLRDLAVAV	–	Kd (source organism: Hepatitis C virus (isolate Taiwan)): 1.47 µM
–	ILCWGELMTL	0.026 µM	–
–	PLSYQHFRRL	≥ 50 µM	–
–	ELRHYSDSV	–	Kd (source organism: human papillomavirus 18): ≥ 50 µM
–	FLCILLLCLI	–	Kd (source organism: Hepatitis B virus adw/Indonesia/PIDW420): 2.38 µM
–	ELHPDKWTV	–	Kd (source organism: HIV-1 M:B_MN): ≥ 50 µM
–	HLSLRGLPV	12.5 µM	–
–	DLVVSYVNV	–	Kd (source organism: Hepatitis B virus): ≥ 50 µM
3.33 µM	PLTSIISAV	–	–
–	RMRGTFSAPL	0.046 µM	–
–	NMGLKFRQL	≥ 50 µM	–
–	CLTFGRETV	≥ 50 µM	–
≥ 50 µM	DLESEFQAAL	–	–
≥ 25 µM	DLFGIWSKV	–	–
–	NMGLKFRQLL	≥ 50 µM	–
